{"source": "patent US20250145711A1", "about": "(Janssen / Centocor, published 2025)", "binders": {"B1": {"name": "BC3B115 (bispecific antibody, human IgG1, kappa, L234A L235A)", "chain": "QVQLVQSGAEVKKPGSSVKVSCKASGYTFTRSTMHWVRQAPGQGLEWMGYINPSSAYTNYAQKFQGRVTLTADKSTSTAYMELSSLRSEDTAVYYCASPQVHYDYSGFPYWGQGTLVTVSSGGSEGKSSGSGSESKSTGGSEIVLTQSPATLSASPGERVTLSCSASSSVSYMNWYQQKPGQAPRRWIYDSSKLASGVPARFSGSGSGRDYTLTISSLEPEDFAVYYCQQWSRNPPTFGGGTKVEIKEPKSSDKTHTCPPCPAPEAAGGPSVFLFPPKPKDTLMISRTPEVTCVVVSVSHEDPEVKFNWYVDGVEVHNAKTKPREEQYNSTYRVVSVLTVLHQDWLNGKEYKCKVSNKALPAPIEKTISKAKGQPREPQVYVYPPSREEMTKNQVSLTCLVKGFYPSDIAVEWESNGQPENNYKTTPPVLDSDGSFALVSKLTVDKSRWQQGNVFSCSVMHEALHNHYTQKSLSLSPG", "heavy": "not shown", "light": "EIVLTQSPGTLSLSPGERATLSCRASQSISSSFLTWYQQKPGQAPRLLIYGASSRATGIPDRFSGGGSGTDFTLTISRLEPEDFAVYYCQHYGSSPMYTFGQGTKLEIKRTVAAPSVFIFPPSDEQLKSGTASVVCLLNNFYPREAKVQWKVDNALQSGNSQESVTEQDSKDSTYSLSSTLTLSKADYEKHKVYACEVTHQGLSSPVTKSFNRGEC", "notes": "IgG1 BCMAxCD3; HC1: CD3B2089-N106S HL scFv-Fc; also called BC3B115.001; B2089 HL NtoS"}, "B2": {"name": "BC3B118 (bispecific antibody, human IgG1, kappa, L234A L235A)", "chain": "EIVLTQSPATLSASPGERVTLSCSASSSVSYMNWYQQKPGQAPRRWIYDSSKLASGVPARFSGSGSGRDYTLTISSLEPEDFAVYYCQQWSRNPPTFGGGTKVEIKGGSEGKSSGSGSESKSTGGSQVQLVQSGAEVKKPGSSVKVSCKASGYTFTRSTMHWVKQAPGQGLEWIGYINPSSAYTNYNQKFQGRVTLTADKSTSTAYMELSSLRSEDTAVYYCASPQVHYDYGGFPYWGQGTLVTVSSEPKSSDKTHTCPPCPAPEAAGGPSVFLFPPKPKDTLMISRTPEVTCVVVSVSHEDPEVKFNWYVDGVEVHNAKTKPREEQYNSTYRVVSVLTVLHQDWLNGKEYKCKVSNKALPAPIEKTISKAKGQPREPQVYVYPPSREEMTKNQVSLTCLVKGFYPSDIAVEWESNGQPENNYKTTPPVLDSDGSFALVSKLTVDKSRWQQGNVFSCSVMHEALHNHYTQKSLSLSPG", "heavy": "not shown", "light": "B1 light", "notes": "IgG1 BCMAxCD3; HC1: CD3B2030-N106G LH scFv-Fc; also called BC3B118.001; B2030 LH NtoG"}, "B3": {"name": "BC3B53 (bispecific antibody, human IgG1, kappa, L234A L235A)", "chain": "B2 chain with G232Q", "heavy": "not shown", "light": "B1 light", "notes": "IgG1 BCMAxCD3; HC1: CD3B2030-N106Q LH scFv-Fc; also called BC3B53.001; B2030 LH NtoQ"}, "B4": {"name": "BC3B122 (bispecific antibody, human IgG1, kappa, L234A L235A)", "chain": "B2 chain with W46L, I174M", "heavy": "not shown", "light": "B1 light", "notes": "IgG1 BCMAxCD3; HC1: CD3B2051-N106G LH scFv-Fc; also called BC3B122.001; B2051 LH NtoG"}, "B5": {"name": "BC3B123 (bispecific antibody, human IgG1, kappa, L234A L235A)", "chain": "B2 chain with W46L, I174M, G232Q", "heavy": "not shown", "light": "B1 light", "notes": "IgG1 BCMAxCD3; HC1: CD3B2051-N106Q LH scFv-Fc; also called BC3B123.001; B2051 LH NtoQ"}, "B6": {"name": "BC3B119 (bispecific antibody, human IgG1, kappa, L234A L235A)", "chain": "B2 chain with G232S", "heavy": "not shown", "light": "B1 light", "notes": "IgG1 BCMAxCD3; HC1: CD3B2030-N106S LH scFv-Fc; also called BC3B119.001; B2030 LH NtoS"}, "B7": {"name": "BC3B121 (bispecific antibody, human IgG1, kappa, L234A L235A)", "chain": "B2 chain with W46L, I174M, G232A", "heavy": "not shown", "light": "B1 light", "notes": "IgG1 BCMAxCD3; HC1: CD3B2051-N106A LH scFv-Fc; also called BC3B121.001; B2051 LH NtoA"}, "B8": {"name": "BC3B117 (bispecific antibody, human IgG1, kappa, L234A L235A)", "chain": "B2 chain with G232A", "heavy": "not shown", "light": "B1 light", "notes": "IgG1 BCMAxCD3; HC1: CD3B2030-N106A LH scFv-Fc; also called BC3B117.001; B2030 LH NtoA"}}, "note": "Residue numbers refer to the chain shown, from its start. Names may count otherwise."}
{"target": "T1, Human CD3 epsilon (CD3ε), on primary human pan T cells (human, UniProt P07766 23-207)", "T1 sequence (P07766 23-207 limits assumed)": "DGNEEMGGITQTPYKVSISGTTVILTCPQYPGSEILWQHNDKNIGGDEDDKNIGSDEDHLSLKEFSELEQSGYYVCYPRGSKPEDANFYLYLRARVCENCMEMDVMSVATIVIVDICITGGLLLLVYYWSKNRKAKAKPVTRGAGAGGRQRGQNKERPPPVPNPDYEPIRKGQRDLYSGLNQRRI", "experiment": "cell-based or functional assay", "units": {"H929 Killing EC50": "nM"}}
{"binder": "B1", "H929 Killing EC50": 0.155}
{"binder": "B2", "H929 Killing EC50": 0.745}
{"binder": "B3", "H929 Killing EC50": 0.0278}
{"binder": "B4", "H929 Killing EC50": 4.36}
{"binder": "B5", "H929 Killing EC50": 0.069}
{"binder": "B6", "H929 Killing EC50": 10}
{"binder": "B7", "H929 Killing EC50": 0.1}
{"binder": "B8", "H929 Killing EC50": 0.149}
{"target": "T1, Human CD3 epsilon (CD3ε), on primary …", "experiment": "cell-based or functional assay", "remark": "another data set of the same source", "units": {"EC50, Cytotoxicity": "nM"}}
{"binder": "B1", "EC50, Cytotoxicity": 0.155}
{"binder": "B2", "EC50, Cytotoxicity": 0.745}
{"binder": "B3", "EC50, Cytotoxicity": 0.0278}
{"binder": "B4", "EC50, Cytotoxicity": 4.36}
{"binder": "B5", "EC50, Cytotoxicity": 0.069}
{"binder": "B6", "EC50, Cytotoxicity": 10}
{"binder": "B7", "EC50, Cytotoxicity": 0.1}
{"binder": "B8", "EC50, Cytotoxicity": 0.149}
{"target": "T1, Human CD3 epsilon (CD3ε), on primary …", "experiment": "flow cytometry on human T cells, anti-human IgG Fc A647 detection", "procedure": "The bsAbs were assayed for their abilities bind T cells and to induce T-cell mediated cytotoxicity against H929 cells (ATCC@CRL-9068™). […] Stain buffer with no antibody was added to bottom 4 wells and assign as background control (secondary antibody alone). Parental Cris7b, CD3B695 (bivalent mAb controls) and CD3B375 (bsAb which was monovalent for Cris-7b) were added also with full dose-response curves.\nFrozen T-cells were thawed in a 37° C. water bath and transferred gently into conical tube containing warm 5 mL media (RPMI+10% FBS)/1 vial of 1×10⁶ cells. Cells were mixed and centrifuged for 5 minutes at 400×g followed by resuspension in flow staining buffer, and counted and viability checked. Cells were then plated in 50 uL/50,000 cells/well into assay plates. Assay positive control mAb was added in the first column in quadruplicates at 2× at 20 nM in the bottom 4 wells. Stain buffer with no mAb was added to the top 4 wells and assigned as background controls (secondary antibody alone). Serially diluted antibody samples were added at 50 uL/well using Intergra Viaflo according to the attached plate maps and incubated for 1 hr at 37° C. After one hour incubation, 150 uL staining buffer were added to all wells, and cells were spun at 500×g for 5 minutes to pellet cells. Cells were then washed prior to addition of Alexa Fluor 647 (A647) conjugated anti human IgG Fc specific secondary detection antibody at 2 ug/mL in staining buffer. Secondary detection antibody was added at 50 uL/well to the washed cells. Plates were covered with foil and incubated for 30 minutes on ice or in the fridge. 150 uL staining buffer were added to all wells, and cells were spun at 500×g for 5 min to pellet cells. Cells were resuspended in 20 uL running buffer containing 1:1000 dilution of SYTOX™ green dead cell stain and run plates on iQue® Screener flow cytometer (Essen BioScience, Inc.). Briefly, cells were gated on FCS vs. SCS dot plot to eliminate debris. Singlets were gated on SCS-A vs SCS-H dot plot and from singlet population, live cells gated choosing BL1 channel for low/negative with SYTOX™ green viability stain (Thermo Fisher).", "units": {"EC50": "nM"}}
{"binder": "B1", "EC50": 24}
{"binder": "B2", "EC50": 257}
{"binder": "B3", "EC50": 19.6}
{"binder": "B4", "EC50": 300}
{"binder": "B5", "EC50": 65}
{"binder": "B6", "EC50": 300}
{"binder": "B7", "EC50": 73.3}
{"binder": "B8", "EC50": 60.9}
